From US20070048801A1

Target: CXCR3 from Mus musculus (NCBI accession no. NP_034040) (Mus musculus) (UniProt O88410)
Assay: cell-based or functional assay

Chain of UniProt O88410 (O88410 whole entry): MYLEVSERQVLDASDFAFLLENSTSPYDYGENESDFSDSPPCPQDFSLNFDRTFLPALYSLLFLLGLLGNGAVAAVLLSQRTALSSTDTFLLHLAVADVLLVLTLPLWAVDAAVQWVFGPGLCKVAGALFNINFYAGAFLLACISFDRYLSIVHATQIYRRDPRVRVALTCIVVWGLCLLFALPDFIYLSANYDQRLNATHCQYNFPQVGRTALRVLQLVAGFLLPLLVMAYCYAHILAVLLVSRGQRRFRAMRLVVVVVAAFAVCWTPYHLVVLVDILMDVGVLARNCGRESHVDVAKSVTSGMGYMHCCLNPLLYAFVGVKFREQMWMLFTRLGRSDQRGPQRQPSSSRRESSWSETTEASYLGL

Q: With “PT-gliadin (gliadin digested with pepsin and trypsin) (peptide)” as the substance, how does the TEER, WT mouse intestinal segments (n=10), baseline read?
A: Its TEER, WT mouse intestinal segments (n=10), baseline is 24.1.

Q: And the TEER, WT mouse intestinal segments (n=10), post-gliadin exposure?
A: The TEER, WT mouse intestinal segments (n=10), post-gliadin exposure was 14.7.

Q: What about the zonulin release, WT mouse intestinal segments (n=10), baseline (ng/mg protein) of the same substance?
A: The zonulin release, WT mouse intestinal segments (n=10), baseline (ng/mg protein) was 0.33.

Q: And the zonulin release, WT mouse intestinal segments (n=10), post-gliadin exposure (ng/mg protein)?
A: The zonulin release, WT mouse intestinal segments (n=10), post-gliadin exposure (ng/mg protein) was 0.61.
